Assays:
[1] = target: T1, monomeric RC–His12–LH1–PufX core complex (reaction centre light-harvesting 1-PufX) (Rba. sphaeroides, UniProt P0C0Y7 1-260; P0C0Y8 2-282; P0C0Y9 2-308; P0C0X9 1-58; P0C0Y1 1-49; P13402 1-82); assay: single-molecule dynamic force spectroscopy (AFM); RC–LH1–PufX on the AFM tip via His12/Ni-NTA and a PEG12 linker, kept photo-oxidised by white light; pre-reduced cytochrome c2-His6 held on a Ni-NTA SiOx substrate via His6; 10 mM HEPES pH 7.4, 45 mM KCl, room temperature; retract velocity 200–3000 nm s^-1; the paper calls the values apparent; details: both partners purified
[2] = target: T1, monomeric RC–His12–LH1–PufX core …; assay: PeakForce QNM single-molecule force spectroscopy (AFM); RC–LH1–PufX on the AFM tip, illuminated; pre-reduced cytochrome c2-His6 (and His6-CFP in patterned lines) held on a Ni-NTA SiOx substrate; 10 mM HEPES pH 7.4, 45 mM KCl, room temperature; modulation frequencies 0.5, 1 and 2 kHz; details: both partners purified

koff [1]: 7.5 s⁻¹
koff [2]: 198 s⁻¹
B1: cytochrome c2-His6 (natural protein)
chain: QEGDPEAGAKAFNQCQTCHVIVDDSGTTIAGRNAKTGPNLYGVVGRTAGTQADFKGYGEGMKEAGAKGLAWDEEHFVQYVQDPTKFLKEYTGDAKAKGKMTFKLKKEADAHNIWAYLQQVAVRP
notes: cytochrome c2, cloned from Rba. sphaeroides strain 2.4.1; Carries a haem cofactor; pre-reduced with 1 mM sodium dithionite before the measurements; The gene was cloned with its own start; the signal peptide is surmised to be cut in Rba. sphaeroides; also called Cyt c2–His6; cyt c2; source: Rba. sphaeroides ΔcycA strain carrying the gene on pRK415, purified (LDAO-solubilised membrane fraction, …)

— publication PMC6688529, “Dissecting the cytochrome c2–reaction centre interaction in bacterial photosynthesis using single molecule force spectroscopy” (Biochemical Journal, 2019)
